Measured values: PMC3351833 (Biochemical Journal, 2011)
acyl = not defined here

Target: calmodulin (recombinant rat CaM) (rat, UniProt P0DP29 2-149)
Assay: NMR titration

## acyl-SSKGTKKFRLEGTLLRTYVCHIIFKT-NH2 (reading uncertain) [Cx50p^141–166 (connexin50 CaM-binding domain peptide, residues 141–166)]
  stoichiometry N: 1
